Measurements as given in patent US20260232732A1 (FUNDACI INSTITUT DE RECERCA CONTRA LA LEUC MIA JOSEP …, published 2026).
Where no end group is shown, it is not given here. The star is where a group is joined. Biotin = O=C1N[C@H]2[C@H](CS[C@H]2CCCCC(=O)*)N1

Legend:
naked peptide MTPTDFTSPI = molecular target: T1, naked peptide MTPTDFTSPI (human); assay: ELISA, naked peptide
T1 peptide: MTPTDFTSPI

naked peptide TDFTSPIPNM = molecular target: T2, naked peptide TDFTSPIPNM (human); assay: ELISA, naked peptide
T2 peptide: TDFTSPIPNM

naked peptide TSPIPNMADD = molecular target: T3, naked peptide TSPIPNMADD (human); assay: ELISA, naked peptide
T3 peptide: TSPIPNMADD

naked peptide IPNMADDYGS = molecular target: T4, naked peptide IPNMADDYGS (human); assay: ELISA, naked peptide
T4 peptide: IPNMADDYGS

naked peptide MADDYGSEST = molecular target: T5, naked peptide MADDYGSEST (human); assay: ELISA, naked peptide
T5 peptide: MADDYGSEST

naked peptide DYGSESTSSM = molecular target: T6, naked peptide DYGSESTSSM (human); assay: ELISA, naked peptide
T6 peptide: DYGSESTSSM

naked peptide SESTSSMEDY = molecular target: T7, naked peptide SESTSSMEDY (human); assay: ELISA, naked peptide
T7 peptide: SESTSSMEDY

naked peptide TSSMEDYVNF = molecular target: T8, naked peptide TSSMEDYVNF (human); assay: ELISA, naked peptide
T8 peptide: TSSMEDYVNF

naked peptide SSMEDYVNFN = molecular target: T9, naked peptide SSMEDYVNFN (human); assay: ELISA, naked peptide
T9 peptide: SSMEDYVNFN

naked peptide SMEDYVNFNF = molecular target: T10, naked peptide SMEDYVNFNF (human); assay: ELISA, naked peptide
T10 peptide: SMEDYVNFNF

naked peptide MEDYVNFNFT = molecular target: T11, naked peptide MEDYVNFNFT (human); assay: ELISA, naked peptide
T11 peptide: MEDYVNFNFT

naked peptide YVNFNFTDFY = molecular target: T12, naked peptide YVNFNFTDFY (human); assay: ELISA, naked peptide
T12 peptide: YVNFNFTDFY

naked peptide FNFTDFYCEK = molecular target: T13, naked peptide FNFTDFYCEK (human); assay: ELISA, naked peptide
T13 peptide: FNFTDFYCEK

naked peptide TDFYCEKNNV = molecular target: T14, naked peptide TDFYCEKNNV (human); assay: ELISA, naked peptide
T14 peptide: TDFYCEKNNV

naked peptide YCEKNNVRQF = molecular target: T15, naked peptide YCEKNNVRQF (human); assay: ELISA, naked peptide
T15 peptide: YCEKNNVRQF

naked peptide KNNVRQFAS = molecular target: T16, naked peptide KNNVRQFAS (human); assay: ELISA, naked peptide
T16 peptide: KNNVRQFAS

[1] = molecular target: T17, biotin-peptide TSSMEDYVNF (human); assay: ELISA biotin-peptide; scFv 10 ug/mL; repII
T17 peptide: Biotin-TSSMEDYVNF
Method: (§1) The peptides were synthesized naked or with a N-terminal Biotin modification with a purity of >98%. All four scFvs were verified by ELISA that can be detected with anti-His antibodies. ELISA was performed for scFv-peptide binding validation. Briefly, naked peptides were coated (50 μg/mL) in 0.58M carbonate-bicarbonate buffer pH9.5, 100 μL/well, 4° C. O/N. Then after blocking (3% BSA-PBS, 300 μL/well 37° C. 1.5 h) and washing (PBS+Tween-20 0.05% v/v (0.05% PBST), wells were incubated with each purified scFv antibody at concentration of 1 μg/mL in PBS at 37° C. 1 h. After washing (0.05% PBST), wells were incubated with secondary antibodies (goat anti-His IgG-HRP) in PBS, 37° C., 30 min. After washing, and incubation with TMB substrate, reactions were stopped with 2M HCl and reading was quantified at OD450.
(§2) ELISA with biotin-conjugated peptides (5 μg/mL) was performed very similar to described above with minor modifications.
(§3) A full curve ELISA was performed for each positive scFv/biotin-peptide pair in order to confirm previous results. Tables 15-17 show ELISA results of the dose-dependent full curve for each positive peptide with scFv “CCR9_HUM”, “Comp-2” and “Comp-3”, respectively.

[2] = molecular target: T18, biotin-peptide SSMEDYVNFN (human); assay: ELISA biotin-peptide; scFv 10 ug/mL; repII
T18 peptide: Biotin-SSMEDYVNFN
Method: as §1, §2, §3

[3] = molecular target: T19, biotin-peptide SMEDYVNFNF (human); assay: ELISA biotin-peptide; scFv 10 ug/mL; repII
T19 peptide: Biotin-SMEDYVNFNF
Method: as §1, §2, §3

[4] = molecular target: T20, biotin-peptide MEDYVNFNFT (human); assay: ELISA biotin-peptide; scFv 10 ug/mL; repII
T20 peptide: Biotin-MEDYVNFNFT
Method: as §1, §2, §3

[5] = molecular target: T21, Peptide 1-BSA (MADDYGSEST-C conjugated to BSA) (human); assay: ELISA; Ab 0.25 ug/mL; repII
T21 peptide: MADDYGSESTC(BSA)
Method: (§4) In brief, plates with each non-conjugated peptide (50 μg/mL) or BSA-conjugated peptide (5 μg/mL) were coated in 0.58M carbonate-bicarbonate buffer pH9.5, 100 μL/well, at 4° C. […] After washing, wells were incubated with the 3, 3′,5,5′-Tetramethylbenzidine (TMB) HRP substrate and reactions were stopped with 2M HCl and OD450 was recorded.

[6] = molecular target: T22, Peptide 3-BSA (SSMEDYVNFN-C conjugated to BSA) (human); assay: ELISA; Ab 0.125 ug/mL; repII
T22 peptide: SSMEDYVNFNC(BSA)
Method: as §4

[7] = molecular target: T23, Peptide 4-BSA (SMEDYVNFNF-C conjugated to BSA) (human); assay: ELISA; Ab 0.125 ug/mL; repII
T23 peptide: SMEDYVNFNFC(BSA)
Method: as §4

[8] = molecular target: T24, Peptide 1, non-conjugated (MADDYGSEST-C) (human); assay: ELISA; Ab 0.125 ug/mL; repII
T24 construct: With the extra C-terminal Cys
T24 peptide: MADDYGSESTC
Method: as §4

[9] = molecular target: T25, Peptide 2, non-conjugated (GSESTSSMED-C) (human); assay: ELISA; Ab 0.125 ug/mL; repII
T25 construct: With the extra C-terminal Cys
T25 peptide: GSESTSSMEDC
Method: as §4

[10] = molecular target: T26, Peptide 3, non-conjugated (SSMEDYVNFN-C) (human); assay: ELISA; Ab 0.125 ug/mL; repII
T26 construct: With the extra C-terminal Cys
T26 peptide: SSMEDYVNFNC
Method: as §4

[11] = molecular target: T27, Peptide 4, non-conjugated (SMEDYVNFNF-C) (human); assay: ELISA; Ab 0.125 ug/mL; repII
T27 construct: With the extra C-terminal Cys
T27 peptide: SMEDYVNFNFC
Method: as §4

[12] = molecular target: T28, antigen peptide-BSA (immunisation peptide #1 MADDYGSESTSSMEDYVNFNF-C conjugated to BSA) (human, extra C-terminal Cys conjugated to BSA); assay: ELISA; Ab 0.125 ug/mL; repII
T28 construct: also called Positive control antigen peptide-BSA; MADDY peptide
T28 peptide: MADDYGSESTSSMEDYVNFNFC
Method: as §4

[13] = molecular target: T21, Peptide 1-BSA (MADDYGSEST-C conjugated …); assay: ELISA; Ab 0.125 ug/mL; repII
Method: as §4

[14] = molecular target: T29, Peptide 2-BSA (GSESTSSMED-C conjugated to BSA) (human); assay: ELISA; Ab 0.125 ug/mL; repII
T29 peptide: GSESTSSMEDC(BSA)
Method: as §4

B1: Comparative antibody 1 (Comp-1) scFv, SEQ ID NO: 10 from WO2023/037125 A1, His-tagged (scFv)
scFv: QVQLKESGPGLVQPSQTLSLTCTVSGFSVASYDMHWVRLPPGKGLEWMGIIWANGNTHYNSGLKSRLSISRDTSKSQVFLKMNSLQTEDTAIYFCTRGGFAYWGQGTLVTVSSGGGGSGGGGSGGGGSGGGGSDVVMTQTPVSLSVSLGGQVSISCRSSQSLVHNNGNTYLSWYLQKPGQSPQLLIYKVSNRFSGVSDRFSGSGSGTDFTLKISRVEPDDLGVYYCGQGTQYPTFGGGTKLELKHHHHHH
binding result (naked peptide MTPTDFTSPI): no binding (tested: 1 ug/mL)
binding result (naked peptide TDFTSPIPNM): no binding (tested: 1 ug/mL)
binding result (naked peptide TSPIPNMADD): no binding (tested: 1 ug/mL)
binding result (naked peptide IPNMADDYGS): no binding (tested: 1 ug/mL)
binding result (naked peptide MADDYGSEST): no binding (tested: 1 ug/mL)
binding result (naked peptide DYGSESTSSM): no binding (tested: 1 ug/mL)
binding result (naked peptide SESTSSMEDY): no binding (tested: 1 ug/mL)
binding result (naked peptide TSSMEDYVNF): no binding (tested: 1 ug/mL)
binding result (naked peptide SSMEDYVNFN): no binding (tested: 1 ug/mL)
binding result (naked peptide SMEDYVNFNF): no binding (tested: 1 ug/mL)
binding result (naked peptide MEDYVNFNFT): no binding (tested: 1 ug/mL)
binding result (naked peptide YVNFNFTDFY): no binding (tested: 1 ug/mL)
binding result (naked peptide FNFTDFYCEK): no binding (tested: 1 ug/mL)
binding result (naked peptide TDFYCEKNNV): no binding (tested: 1 ug/mL)
binding result (naked peptide YCEKNNVRQF): no binding (tested: 1 ug/mL)
binding result (naked peptide KNNVRQFAS): no binding (tested: 1 ug/mL)

B2: CCR9_HUM2 scFv (humanized anti-CCR9 scFv, SEQ ID NO: 17 with C-terminal 6xHis tag) (scFv)
scFv: QVQLVQSGAEVKKPGASVKVSCTASGYSFTDYIIYWVKQAHGQSLEWMGYIDPNNYNTRYSQKFQGKVTITVDKSSTSAYMELNSLTSDDTAVYYCARDVYWGQGTTVTVSSGGGGSGGGGSGGGGSGGGGSDVVMTQTPLSLSVTPGQPASISCRSSQSLVHSNGKTYLQWYLQKPGQSPKLLIYKVSNRFSGVPDRFSGSGSGTDFTLKISRVEAEDVGVYFCAQSTHVWTFGGGTKVEIKRAHHHHHH
OD450 [1]: 1.36 OD
OD450 [2]: 1.87 OD
OD450 [3]: 1.85 OD
OD450 [4]: 1.79 OD

B3: anti-CCR9 antibody clone 115 (murine, from hybridoma #115) (antibody, V domains shown)
VH: QVQLKQSGPELVKPGTSVRVSCTASGYSFTDYIIYWVKQSHGRSLEWIGYIDPNNYNTRYSQKFKGKATLTVDKSSTSAFMHLNSLTSDDSAVYYCARDVYWGQGTTLTVSS
VL: DVVMTQTPLSLTVSLGDQASISCRSSQSLVHSNGKTYLQWYLQKPGQSPKLLIYKVSNRFSGVPDRFSGSGSGTDFTLKISRVEAEDLGVYFCAQSTHVWTFGGGTKLEIKR
notes: Mouse IgG1
OD450 [5]: 0.02 OD
OD450 [6]: 1.97 OD
OD450 [7]: 2.39 OD
OD450 [8]: 0.02 OD
OD450 [9]: 0.01 OD
OD450 [10]: 1.77 OD
OD450 [11]: 1.84 OD
OD450 [12]: 2.31 OD
OD450 [13]: 0.01 OD
OD450 [14]: 0.01 OD
